Source: the domain aggregation screens of Martell et al. (2025)

Test: soluble fraction after stress (log2 fold change); higher = more stays soluble; pooled small domains, quantitative proteomics
Details: stress: 50 degC
How it was run: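 Pooled custom libraries of small protein domains were measured in a high-throughput format, with quantitative proteomics as the read-out. Each library was stressed at 50°C. Aggregation propensity is given as the base-two logarithm of the fold change in how much of each protein stays soluble after the stress. Higher values mean a larger share of the protein remains in solution.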

Sequence | soluble fraction (log2)
HMGKPPNNRIHRAKRDYALNLVKEHYPDFGPTLAAEKLAEHHGFTVSRETLRKWMIEDGIWLSRKQRR | -0.123
HMYRYTTFKVKEADTLLPFIQKSLNGISHNRAKAILTGGGVLVDKKITRAYDFALRPGMTVEISKSKP | -0.103
HMGRRDLSWQPAAGGVSIDGLKAGEAWTLFGLNGRILKQGYAPEGQMSLAVNAGLFVLRGAESGVIRIAVA | -1.25
HMSGTYIATVEAGSLDIYKSMTSNETIGKASRGDVFQILEDMGSGYARVSYNDVEGYMSIKTGDASIEEL | -0.203
HMTSVAGIERFLASGAIKGMGAATAKLIVEHFGADTLNMLDMYPERLTEIKGIGPKKATAIIEGYRELS | -0.751
HMQQLTDRELEVLRLLAAGLSNNKIGEKLYISATTAKFHVSNIMRKLEVSRRAEAVYAASKRGL | -2
HMDETPESIFAKANELYPKYIKYFYTEQEYYSKVEEYINLYEFQKNSTYILGKDLEEFLEEYITNKQ | -0.517
HMVRKIQAKLVLRLHAQGLSGRAIARSQGMSRRSVSDVLDAARAVGVGWDDVTGKTDGEVYALLFPGRG | -2.47
HMKELFGQRLREQRLKQNLTLEQLAEKANLSPNYVGMVERGLKEPGLATIVKLLNGLNVSADTLL | -0.036
HMETALYVEDLDRAVRFYESVMGLNTMSRGVRLVALDAGEGTVLLLFLRGATTSGASFEGGWIPPH | -0.0244
HMVENATPEEREALNDIAMEAMGMVKDGKPTSAREFVQSQNLDNDQKILLWSLLDAPTRSALKTAEK | -0.133
HMSQVLVRINQDLNIRSGPGAQYDIIAVYRSGAIASVIGTYNNWYKVNFELDSKSYTGWINGTFTSR | -1.93
HMSTPTVDTKTKLDLYNLLYKKDLNYLDAYNFVLDNFGSDNIDIMFKMLGLDFTNWVIENKPE | 0.0375
HMFGQRLRLARKRAGLSMQALAQRMSPPVTAQAISKYEADRMMPSSAVLVGLGKALGVSLDFLMGGQ | -0.835
HMALSETIYRLRTEHGLSQGDLAAELDVSRQSISKWETGSSVPELDKLVAMSRLFGVSLDELVLGE | -0.63
HMLEIQENFQNILKRMELSLSPLERRVLALYLSGYERSEIPEKTGIPLKTFDNALHRVRNKMK | -1.53
HMGGLAVQLVHAMTDQIRSGRLKAGDKLPTEAAIMKDFGVSRTVVREAISRLQASGWVDTRHGIGTFVLHQ | -1.3
HMNNPNFAIQKYVTGSDIKRVRKTLRLTQKKFAELVGVSKATMERWETKEDKITGPVVLLLKILEDHPEY | -1.3
HMIGIRLKELVLKNQSAWVGLRVSELDISRKTMIVMIRRGDKMLIPNGSTILRSGDVLLLYTR | -0.452
HMNDFVTVPDLQGIFYSEAIKKIDKMGLKEGSIQFVNQDKFLPNTVLNQNPKEGTKVSQDSPINLIIS | 0.0352
HMARTLSVTVSENYANMRLDSFLFESGLYPSRSKAVKQIESGKVFVNGNEPTKKTIVVANDFIVYEEYAEE | -1.06
HMYGTQTVNRGAVQPGMLVKHKDSTWTASANARGRLYLHRGVEMTYTRDLLVEVYLNGLGNGL | 0.102
HMASELVSADEKYSGLVSYLLGRVVVVDQIDHAIALAKKYRYSLRIVTLDGELLSPGGSMTGGAFKNS | -0.0628
HMNVNTNTILKSLMETYPDSTVFKKAEIVSIANSLGFKKSDYSPLTSTDNRTDVRGQYDLSAVIIPMRESN | -0.13
HMRDSWNEATKEKRYTEAYDALNSALKKTPATPHALSDALWIARELGRTNEEVQRLEWRLYALLTWIS | 0.0708
HMNEDYFTIAGYASLRGVNIDTSKANMLGRKATKLSREYGYDIGKVTDTRFGKVNSYHLDILKSIFEF | -0.477
HMGGYVTGTIDLTKFGYAFVITEESEDDVFVAARNLNTALHGDQVKVLLYARHKGKRPEGEVVEIISRSRA | -1.11
HMNATLSSSYPTSVVTDGEIYKLTFGLNGKYNGQEQITVKPHGDSNIYDSGGLRAYQNTQSNNVVTLN | 0.1

Sequence | soluble fraction (log2)
HMQTRIDISDAVLQWVVRKTQFAALPPKAAAHLTKWVRGEKKPTFNQLEEVSKATGIPLGYFFLQQPPHE | -0.776
HMDIPDIGHNVRIEVDGHNGKTTHEGIILHPAAPNHITIKLANGYNASYKLEEIINIEILGELGDDSKI | -0.0692
HMVIPATPTARRAKIAGLLADRSVRSQGELLTLLADAGIEVTQATLSRDLEALGAVKVRDGRGLVYAVPG | -0.0411
HMSDVLPEAILERRLVKKGNRAVPQVLIKWTKLPATSATWEDFYVLQQRFPTALAWGQAPSPGGQM | -0.221
HMTSMYYLNKAVKEGNAKAIRQLLSAGININVRKRETSTPLDFAIKYKQTEIADLLRKHGGKTAEELKAEE | -0.343
HMDGVEVVTKPAGAQIEFAGKSYGPSPVHIPGLVAGSQLILRLPGFQAATVRLRTAPDKSKALEYTLQPA | -0.0828
HMDISEIEKRLLDFLEMPRSRKEIAEHLGIRTISYAIQTYITPLIDKKLVKMTIPESPRSHSQQYVRIN | -0.92
HMSAHDLQVVLRWIGTDEPMTDQRYRITTEDGRTFEGRTDDAGLTERVASTIPFGRYSIEALD | -0.441
HMERQAEAWTNRASALISLGRDEEALEAADRAIELDPRLSKAWIDRSTALSNLGRNDEANEAIQMAMFL | 0.108
HMVMLIVMNHTASQADIDKVIEVVSGMGFTAAPIPGGERTAIGVLGNKGYVDDSTIRDLPGVQQAIHVSKP | 0.0615
HMTSSQLNIEELERRMMMHLEQNGFITRSIYTNLTGRLKWKATEDLKIFVEKGLIRKMGRGNQMYYVKVE | -1.7
HMERYSVQVGSFRNMRYAERLKQELQGEDFPAYIEKSGEFNRVRVGKGLTLEEATQLEQVLRKSGYQTVIV | -0.395
HMNVPYEMVTQNGEVFYKYKVQPGEGVFAVSRTFSVSVAEILRVNPEANKGLKNGQVLLIPVPKDMIA | 0.0163
HMPDLSGEEQQIVDILAQRGNLQINTLVVETDIPVHKMNAILFELEMKGVVRVLAGGMYQLL | -0.263
HMNREDYIKAIFKIAEREGEASNQRIADSLGVSRASASEMVKKLIQEGFVVAEGRQLSLSAEGERIA | 0.0824
HMGTSMDPPVIIVSDGKLIQKGLEVSGLKKQWLYDLIDRKHMKISDIFLLTADKTGKYNLIKRS | 0.0904
HMANWRVGQTINALVSDRMPSGGLLLTVGRQSFVTTRDIPVQPGARIMLEVQQVEPKLVLRLVSA | -1.17
HMEDIEEVIVEIDTVLRTHFDRGRTEVLFAEIETAGGRPFMTYLALLFMAHRGSVRLQQDDLFGDLWVKDP | -0.0374
HMVVYQRVHDEILQALKDNVYPVGTLLPPEPELERIYSVSRTTVRRAIAKLSEEGYVQVRQGYGTMVLKN | -0.576
HMNSEFPFNGGRIVDNVPANRLQIFFDEKPDADVRTRLKQNGFRWAPNSGAWQSYRHGYTLDWARREFNA | 0.134
HMNQNHFLDSVVEFAKDEASRAFFQKAVKKLGEGLVEEAMGEVKMREADGSVNSRAPYFIALLENWMENR | 0.0128
HMAKRINVKLIMELSAGGLTQNEIASSRHFSKTSVNLVLKTARELNVSAADLREMSPEEAYRLFFPEK | -1.43
HMQKFLEATGENRDAAVENALEQLGLERDDVSVEVLEIGKKGFLGIGATPARVRVTYEAPDI | -0.0313
HMSIMNLSEKIVVLRKSNGMSQEELAEKLYVSRQAVSRWEMGTAVPDSTNILQLGKLFHVTTDYLLNDEYE | -3.19
HMQELKWERNYKLVQDYIKQYGVLPSKNTKYANVSIGRWLTNQHELVKEDNLAPERFEKIKELDT | -0.233
HMSQNISSTKLIPENIKIGMSVFVIPLQQKGIVQSLPNRSKEVLVQIGNAKINVKINNLKLIED | 0.295
HMETTMVEIKAEFTIRNRLDIPAMMEKAGYKDRGEFLSVLEKITGNYNWDRDVKKGDTFMVPSKLA | -0.777
